The values below come from US20230090901A1 (GAMMADELTA THERAPEUTICS, published 2023).

For test [1], the target named is T1, L1 (DV1-GV4), soluble leucine zipper γδ TCR heterodimer of a delta variable 1 chain and a gamma variable 4 … (human).
T1 construct: also called bt-L1; not shown: histidine tag/linker said to follow the zipper
As to the kind of experiment: SPR (Reichert 4SPR), L1 coupled to chip, IgG1 flowed, steady state 1:1 fit; experiment 1.

The target of test [2] is T1, L1 (DV1-GV4), soluble leucine zipper γδ …. As to the kind of experiment: SPR (Reichert 4SPR), L1 coupled to chip, IgG1 flowed, steady state 1:1 fit; average column (one experiment).
Protocol: (§1) In brief, the binding affinity of the antibodies to target (i.e. the human Vγ4 chain of a γδ TCR) was established by SPR analysis using a Reichert 4SPR instrument (Reichert Technologies). […] All experiments were performed at room temperature, with the samples kept at 4° C. before flowing over the chip. Steady state fitting was determined according to Langmuir 1:1 binding using software TraceDrawer (Reichert Technologies).
Test [3] shares this target. Kind of test: DELFIA ELISA, coated antigen.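 Also: binding of antibody supernatants or protein-A purified antibodies to plate-coated antigen (3 µg/ml recombinant TCR or BSA), 1 h incubation at room temperature, DELFIA readout.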
Protocol: (§2) A DELFIA ELISA binding method was also employed to assess binding of antibody supernatants or further protein-A purified antibody. In brief, MaxiSorp plates were coated with 3 μg/ml of antigen BSA or L1 (DV1-GV4), L2 (DV1-GV2), L3 (DV1-GV8), or L4 (DV2-GV4) recombinant TCR antigen. Plates were then washed with PBS, blocked with PBS/skimmed milk and then test article added and incubated for 1 hour at room temperature.
In test [4] the target is L3 (DV1-GV8), soluble leucine zipper γδ TCR heterodimer of a delta variable 1 chain and a gamma variable 8 … (human). Kind of test: DELFIA ELISA, coated antigen.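 Also: binding of antibody supernatants or protein-A purified antibodies to plate-coated antigen (3 µg/ml recombinant TCR or BSA), 1 h incubation at room temperature, DELFIA readout.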
Sequence of L3 (DV1-GV8), soluble leucine zipper γδ TCR heterodimer of a delta variable 1 chain and a gamma variable 8 … (human) (chain, as listed by the source mutant, chain 1 of 2): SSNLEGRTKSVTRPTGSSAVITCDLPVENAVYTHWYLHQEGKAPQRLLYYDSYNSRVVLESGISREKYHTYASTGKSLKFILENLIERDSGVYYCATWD
Sequence of L3 (DV1-GV8), soluble leucine zipper γδ TCR heterodimer of a delta variable 1 chain and a gamma variable 8 … (human) (chain, as listed by the source mutant, chain 2 of 2): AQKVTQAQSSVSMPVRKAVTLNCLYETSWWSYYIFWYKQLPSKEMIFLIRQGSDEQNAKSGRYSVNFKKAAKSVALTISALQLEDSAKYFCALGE
Protocol: as §2
The target in another test is T2, BSA (bovine, UniProt P02769).
T2 construct: coated at 3 µg/ml; also called bovine serum albumin, control antigen of the DELFIA ELISA
T2 sequence (P02769 25-607 limits assumed): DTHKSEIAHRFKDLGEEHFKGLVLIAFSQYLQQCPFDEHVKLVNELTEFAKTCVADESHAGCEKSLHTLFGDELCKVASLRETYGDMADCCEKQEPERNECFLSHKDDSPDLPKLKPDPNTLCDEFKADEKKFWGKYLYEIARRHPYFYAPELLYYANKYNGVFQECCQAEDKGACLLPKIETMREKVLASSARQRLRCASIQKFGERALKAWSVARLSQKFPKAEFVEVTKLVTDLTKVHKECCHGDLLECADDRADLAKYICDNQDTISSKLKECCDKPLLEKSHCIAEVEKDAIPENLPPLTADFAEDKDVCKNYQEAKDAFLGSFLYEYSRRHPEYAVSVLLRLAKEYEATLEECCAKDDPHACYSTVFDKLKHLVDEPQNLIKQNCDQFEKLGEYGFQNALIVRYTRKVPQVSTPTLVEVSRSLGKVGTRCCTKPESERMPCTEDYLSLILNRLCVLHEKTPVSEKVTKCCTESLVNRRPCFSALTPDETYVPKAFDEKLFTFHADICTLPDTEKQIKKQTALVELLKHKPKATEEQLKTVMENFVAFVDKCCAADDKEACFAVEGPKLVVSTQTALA
As to the kind of experiment: DELFIA ELISA, coated antigen.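 Also: binding of antibody supernatants or protein-A purified antibodies to plate-coated antigen (3 µg/ml recombinant TCR or BSA), 1 h incubation at room temperature, DELFIA readout.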

Test [5] concerns the target L2 (DV1-GV2), soluble leucine zipper γδ TCR heterodimer of a delta variable 1 chain and a gamma variable 2 … (human). As to the kind of experiment: DELFIA ELISA, coated antigen.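 Also: binding of antibody supernatants or protein-A purified antibodies to plate-coated antigen (3 µg/ml recombinant TCR or BSA), 1 h incubation at room temperature, DELFIA readout.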
Protocol: as §2
Test [6] concerns the target T1, L1 (DV1-GV4), soluble leucine zipper γδ …. Kind of test: SPR (Reichert 4SPR), L1 coupled to chip, IgG1 flowed, steady state 1:1 fit; experiment 2.
Protocol: as §1
Test [7] has the same target. As to the kind of experiment: SPR (Reichert 4SPR), L1 coupled to chip, IgG1 flowed, steady state 1:1 fit; average.
Protocol: as §1
Test [8] has as its target T3, Vγ4 chain-bearing γδ TCR on primary human Vγ4+ T cells (skin, PBMC, gut) (human).
T3 construct: Polyclonal natural receptors; only the germline Vγ4 region is common to them; also called primary Vγ4+ T cells; primary skin-derived Vγ4+ T cells
As to the kind of experiment: flow cytometry titration on skin-derived Vγ4+ T cells, left plot, anti-human IgG1 secondary.
Protocol: Detection was performed by addition of a secondary, fluorescent dye-conjugated antibody against human IgG1 (IS11-12E4.23.20). Cells were then fixed and acquired on the MACSQuant16 flow cytometer. Cells were gated as single, live, IgG1 (Vγ4)⁺. Data shown are the median fluorescent intensity (MFI) of secondary detection antibody detected bound to Vγ4⁺ cells.

T1 sequence (main, as listed by the source, chain 1 of 2): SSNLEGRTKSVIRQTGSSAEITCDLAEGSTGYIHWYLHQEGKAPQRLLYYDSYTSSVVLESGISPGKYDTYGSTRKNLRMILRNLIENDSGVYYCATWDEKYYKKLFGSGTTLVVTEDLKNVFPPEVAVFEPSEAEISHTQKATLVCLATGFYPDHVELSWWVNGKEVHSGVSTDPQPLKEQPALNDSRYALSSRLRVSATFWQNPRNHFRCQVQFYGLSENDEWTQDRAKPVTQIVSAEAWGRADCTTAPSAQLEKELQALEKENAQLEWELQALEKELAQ
T1 sequence (main, as listed by the source, chain 2 of 2): as the sequence (chain, as listed by the source mutant, chain 2 of 2) above
Sequence of L2 (DV1-GV2), soluble leucine zipper γδ TCR heterodimer of a delta variable 1 chain and a gamma variable 2 … (human) (chain, as listed by the source mutant, chain 1 of 2): as the sequence (main, as listed by the source, chain 1 of 2) above, with T30N, L48Q, T54N, S56K, I63V, D69Y, G72A, K76N, M80L counted along it
Sequence of L2 (DV1-GV2), soluble leucine zipper γδ TCR heterodimer of a delta variable 1 chain and a gamma variable 2 … (human) (chain, as listed by the source mutant, chain 2 of 2): as the sequence (chain, as listed by the source mutant, chain 2 of 2) above
T3 sequence (main, as listed by the source): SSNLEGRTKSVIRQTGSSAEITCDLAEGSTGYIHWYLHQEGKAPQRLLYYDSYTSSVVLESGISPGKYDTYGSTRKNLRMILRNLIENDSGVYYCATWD
Protocol for BSA: as §2

B1: G4_27 (antibody, human IgG1, V domains shown)
VH: QVQLVQSGAEVKKPGESLKISCKSSGYSFTSYWIGWVRQMPGKGLEWMGIIYPGDSDTRYSPSFQGQVTFSADESISTAYLQWSSLKASDTAMYYCARHGAYGDYPDTFDIWGQGTLVTVSS
VL: SSYELTQDPAVSVALGQTVSITCQGDSLRNFYANWYQQKPGQAPVLVIYGKNNRPSGIPDRFSGSSSGNTASLTITGAQAEDEADYYCNSRDSSGNHLVFGGGTQLTVLG
notes: also called 1248_P02_C10; clone G4_27
For B1, the Kd in test [1] and in test [2] was 0.261 µM each time. Further, the “DELFIA ELISA response (FU)” value came out at 138000 FU in test [3], 1690 FU in test [4], 40 FU with BSA and 579 FU in [5]. Besides, in the test with BSA, the binding result is on record as “no binding”.

B2: G4_18 (antibody, human IgG1, V domains shown)
VH: EVQLVESGAEVKKPGASVKVSCKASGYTFTGYYMHWVRQAPGQGLEWMGRINPNSGGTNYAQKFQGRVTMTRDASISTAYMELSRLRSDDTAVYYCARDLDLSSLDYWGRGTLVTVSS
VL: SSYELTQPPSVTESPGQTARITCSGDALAKQYAYWYQQKPGQAPVLVIYRDSERPSEIPERFSGSSSGTTVTLTISGVQAEDEADYYCQSADSSGTYTVFGGGTKLTVLG
notes: also called 1254_P01_H04; clone G4_18
As for B2, the Kd in test [6] and in [2] was 0.0199 µM in each case. The “DELFIA ELISA response (FU)” value in test [3] came to 197000 FU; in test [4], 185 FU; with BSA it was 67 FU; in test [5], 66 FU. Also, the binding result with BSA is “no binding”.

B3: G4_2 (antibody, human IgG1, V domains shown)
VH: QMQLVQSGAEVKKPGATVKISCKVSGYPFTDYYIHWVQQAPGKGLEWMGLVDPEDGQSRSAERFQGRVTITADTSTDTAYMELSSLRSEDTAVYYCATFPVAGFYGMDVWGQGTLVTVSS
VL: DIQMTQSPSSLSASVGDRVTITCQASQDISNYLNWYQQKPGKAPKLLIYAASSLQSGVPSRFSGSGSGTDFTLTISGLQPEDFATYYCLEDYNYLWTFGQGTKLEIKR
notes: also called clone G4_2
For B3, the “DELFIA ELISA response (FU)” value in test [3] worked out at 201000 FU; in [4], 270 FU; in the test with BSA it was 56 FU; in test [5], 86 FU. The binding result with BSA is on record as “no binding”.

B4: G4_1 (antibody, human IgG1, V domains shown)
VH: EVQLLESGGGVVQPGRPLRLSCAASGFTFSSYSMNWVRQAPGKGLEWVSSISSSSSYIYYADSVKGRFTISRDNSKNTLYLQMNSLRAEDTAVYYCAKGHWYFDLWGRGTLVTVSS
VL: DIQMTQSPSSLSASVGDRVTITCQASQDISNYLNWYQQKPGKAPKLLIYDASNLETGVPSRFSGSGSGTDFTLTISSLQPEDFATYYCQQSYSTPVTFGPGTKVEIKR
notes: also called clone G4_1
B4: the “DELFIA ELISA response (FU)” value worked out at 202000 FU in test [3], 244 FU in [4], 78 FU in the test with BSA and 100 FU in test [5]. Besides, the binding result with BSA is reported as “no binding”.

B5: G4_3 (antibody, human IgG1, V domains shown)
VH: EVQLVESGGGLVQPGGSLRLSCAASGFTFSSYSMNWVRQAPGKGLEWVSSISSSSSYIYYADSVKGRFTISRDNSKNTLYLQMNSLRAEDTAVYYCARGGWLYDYWGQGTLVTVSS
VL: DIQMTQSPSSLSASVGDRVTITCQASQDISNYLNWYQQKPGKAPKLLIYDASNLETGVPSRFSGSGSGTDFTLTISSLQPEDFATYFCQQSYSTPQTFGQGTKVDIKR
notes: also called 1139_P01_A04; G4_03
Take B5: the Kd in [7] came to 0.00286 µM; in [6], 0.00203 µM; in test [1], 0.00369 µM. In addition, the “DELFIA ELISA response (FU)” value in [3] worked out at 213000 FU; in test [4] it was 239 FU; with BSA, 88 FU; in test [5] it was 216 FU. In the test with BSA, the binding result is listed as “no binding”.

B6: G4_20 (antibody, human IgG1, V domains shown)
VH: QVQLVESGAEVKKPGASVKVSCKASGGTFSSYAISWVRQAPGQGLEWMGGIIPIFGTANYAQKFQGRVTITVDKSTRTAYMELSSLRSKDTAVYYCARGNSRSDAFDIWGQGTMVTVSS
VL: SSYELTHPPSVSVSPGQTASITCSGDKLGDKFVSWYHQKPGQSPVLVIYQDSKRPSGIPERFSGSNSGNTATLTISGTRAMDEADYYCQAWDSSTVVFGGGTKLTVLG
notes: also called 1254_P02_G02; clone G4_20
Consider B6, for which the Kd in [7] was determined as 0.0525 µM; in test [6], 0.0621 µM; in test [1], 0.043 µM. Besides, the “EC50 (read off the curve)” value in [8] is approximately 2 mg/L. Moreover, the “DELFIA ELISA response (FU)” value in test [3] is 184000 FU; in [4], 239 FU; with BSA, 132 FU; in test [5] it was 147 FU. For the same molecule, the binding result with BSA is recorded as “no binding”.

B7: G4_12 (antibody, human IgG1, V domains shown)
VH: EVQLLESGGGLVQPGGSLRLSCAASGFTVSSNYMSWVRQAPGKGLEWVSVIYSGGSTYYADSVKGRFTISRHNSKNTLYLQMNSLRAEDTAVYYCARVANGDFLDYWGRGTLVTVSS
VL: SQSVLTQPASVSGSPGQSITISCTGTSSDVGGYNFVSWYQQHPGKAPKLMIYEVTNRPSGVPDRFSGSKSGNTASLTISGLQAEDEADYYCSSHASPRVFGTGTKVTVLG
notes: also called 1140_P01_G08; clone G4_12
Turning to B7, the dissociation constant (Kd) in test [7] was 0.019 µM; in test [6], 0.0202 µM; in test [1], 0.0178 µM. For the same molecule, the “EC50 (read off the curve)” value in [8] was approximately 1 mg/L. The “DELFIA ELISA response (FU)” value in test [3] worked out at 237000 FU; in test [4] it was 252 FU; in the test with BSA, 80 FU; in test [5], 229 FU. The binding result in the test with BSA is “no binding”.

B8: G4_10 (antibody, human IgG1, V domains shown)
VH: QVQLVESGGGVVQPGRPLRLSCAASGFTFSSYAMHWVRQAPGKGLEWVSAISGSGGSTYYADSVKGRFTISRDNSKNTLYLQMNSLRAEDTAVYYCAKDGAVDFWRNGMDVWGRGTLVTVSS
VL: DIVMTQPPLSLPVTLGHPASISCKSSQSLEYSDGNTYLNWFQQRPGQSPRRLIYKVSNRDSGAPDRFSGSGSGTDFTLEISRVEAEDVGVYYCMQGTLWPPTFGQGTKVDIKR
notes: also called clone G4_10
Take B8: the “DELFIA ELISA response (FU)” value is 145000 FU in test [3], 187 FU in [4], 57 FU with BSA and 109 FU in test [5]. In addition, the binding result with BSA was “no binding”.
